The text below walks through data of patent US20090226422, “Chemical Inhibitors of Inhibitors of Differentiation” (published 2009).

In data set [1] the target is T1, E47 + Id1 (Homo sapiens, UniProt P15923-2;P41134 P15923-2:1-651,P41134:1-155).
T1 sequence 1: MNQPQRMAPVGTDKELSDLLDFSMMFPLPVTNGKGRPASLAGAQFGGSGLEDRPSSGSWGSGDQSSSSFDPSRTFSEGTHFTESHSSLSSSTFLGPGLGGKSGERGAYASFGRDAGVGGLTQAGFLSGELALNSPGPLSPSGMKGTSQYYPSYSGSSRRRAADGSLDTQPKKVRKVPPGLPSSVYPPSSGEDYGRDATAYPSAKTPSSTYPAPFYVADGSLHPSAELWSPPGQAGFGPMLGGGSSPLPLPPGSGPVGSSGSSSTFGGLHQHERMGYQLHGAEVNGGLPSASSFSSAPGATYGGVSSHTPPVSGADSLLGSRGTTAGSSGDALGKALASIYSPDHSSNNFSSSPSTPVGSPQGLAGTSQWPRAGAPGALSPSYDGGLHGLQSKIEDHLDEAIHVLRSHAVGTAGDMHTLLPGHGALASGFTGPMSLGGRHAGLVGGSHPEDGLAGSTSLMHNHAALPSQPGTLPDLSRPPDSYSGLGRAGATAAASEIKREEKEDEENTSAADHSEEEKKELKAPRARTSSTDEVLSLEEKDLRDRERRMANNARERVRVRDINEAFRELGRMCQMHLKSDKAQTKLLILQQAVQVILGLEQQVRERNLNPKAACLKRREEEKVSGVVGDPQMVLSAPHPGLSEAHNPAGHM
T1 sequence 2: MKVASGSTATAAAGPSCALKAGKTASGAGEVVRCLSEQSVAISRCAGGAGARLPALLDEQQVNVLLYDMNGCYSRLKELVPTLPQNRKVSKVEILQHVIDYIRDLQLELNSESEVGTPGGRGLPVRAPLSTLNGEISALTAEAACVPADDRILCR
Description: EMSA; Id1 (100 ng) added to E47 prevents E47 binding to MCK; binding restored by small-molecule Id inhibitors (100 uM, 5% DMSO). The note with it: tags: recombinant human E47 mixed with recombinant human Id1 (100 ng); label: 32P. How it is done:
(§1) Gel shift assays were performed using the 376 small molecules identified in the in silico drug screen and peptide synthesis. The identified compounds were then dissolved in 5% DMSO to a concentration of […] and reacted in binding mixtures that contained E47, Id1 and Mck. As controls, recombinant human E47 was used in a standard binding reaction that contained ³²P labeled MCK double stranded oligonucleotides containing consensus E-Box response element (MCK-5′ TTGATCCCCCCAACACCTGCTGCCTGAAGCT (SEQ ID NO. 1)) and 100 ng of Id1 was added to a standard binding reaction using E47 and p32 labeled MCK. After 30 minutes of incubation, the reaction mixtures were resolved on a 5% non-denaturing polyacrylamide gel and autoradiographed.

Data set [2] addresses T2, E47 (TCF3) (Homo sapiens, UniProt P15923-2 P15923-2:1-651).
T2 sequence: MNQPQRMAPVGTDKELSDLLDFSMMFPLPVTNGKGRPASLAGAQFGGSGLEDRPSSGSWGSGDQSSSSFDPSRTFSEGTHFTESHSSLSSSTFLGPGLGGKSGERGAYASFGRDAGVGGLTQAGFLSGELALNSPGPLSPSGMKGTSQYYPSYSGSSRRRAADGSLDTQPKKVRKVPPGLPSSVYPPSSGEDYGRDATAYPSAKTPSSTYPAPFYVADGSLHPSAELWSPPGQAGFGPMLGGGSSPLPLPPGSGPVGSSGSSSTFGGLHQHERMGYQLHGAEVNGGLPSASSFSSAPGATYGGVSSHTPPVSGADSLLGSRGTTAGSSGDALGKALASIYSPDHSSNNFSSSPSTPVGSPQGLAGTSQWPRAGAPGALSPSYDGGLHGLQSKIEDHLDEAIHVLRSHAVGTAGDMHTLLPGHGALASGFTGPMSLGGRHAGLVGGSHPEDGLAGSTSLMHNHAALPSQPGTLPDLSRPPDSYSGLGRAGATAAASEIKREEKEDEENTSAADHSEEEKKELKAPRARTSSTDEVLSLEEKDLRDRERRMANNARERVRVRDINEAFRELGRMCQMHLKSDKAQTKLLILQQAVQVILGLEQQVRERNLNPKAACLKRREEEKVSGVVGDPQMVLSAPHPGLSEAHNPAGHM
As to the kind of experiment: EMSA; 5% non-denaturing PAGE, 30 min incubation; E47 homodimer shifts the probe. The note with it: tags: recombinant human E47; chain copies: 2 (homodimer, stated); label: 32P. How it is done: as §1
Background: Mobility shift assays separate free from complexed probe on a gel.

B1: MCK E-box oligonucleotide (dsDNA)
DNA 1: TTGATCCCCCCAACACCTGCTGCCTGAAGCT
DNA 2: AGCTTCAGGCAGCAGGTGTTGGGGGGATCAA
Take B1: the results for the binding result in data set [1] and in data set [2] were “no binding” and “binds”, respectively.
